From the supplement of paper PMC7125110
± gives the standard error. This sample holds only a part of the variants without activity.

B1: glmS ribozyme (parent)
chain: AUAAAAGCGCCAGAACUACAGAAAUGUAGUUGACGAGGAGGAGGUUUAUCGAAUUUUCGGCGGAUGCCUCCAAA

Variants of: B1
Test: self-cleavage kobs at 10000 uM GlcN6P; higher = faster cleavage; RNA array
Settings: with glucosamine-6-phosphate
How it was run: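 Using a hybridised Cy3 probe at 37 °C, barcoded ribozyme variants transcribed in situ by E. coli RNA polymerase on sequenced MiSeq chips were monitored across tiles imaged over ~14 h. The flow contained glucosamine-6-phosphate from 40 μM to 10 mM in HEPES/KCl/Mg(OAc)2 buffer. Signals were normalised to baseline and to non-cleaving reference variants before per-tile medians were fit to one- or two-exponential decays to yield kobs. Weighted Michaelis–Menten fits across concentrations gave kcat and KM.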

Variant	self-cleavage kobs at 10000 uM GlcN6P [s⁻¹]
G9U G41U A42G A52U A64U C68U	< 1e-05
A14C A36G G51U	< 1e-05
G9A U30C G35U U55G	< 1e-05
G13C U56G A64G C67A	3.32e-05 ± 1.4e-05
G29U U46G C68U	0.000229 ± 4.1e-05
A15C C16G U31A	0.000253 ± 7.3e-05
A15C A64G C67G C68U	< 1e-05
C19G G37A	0.00215 ± 0.00044
A15G G44U C58U C67A	2.9e-05 ± 1.2e-05
C8G C34U G43U G62U C71U	< 1e-05
A14C G35C G38U C61U G63U U65A C71G	< 1e-05
C10U A42G	3.17e-05 ± 7.6e-06
G13U C16U U31A A33U G35C	< 1e-05
A12C A14G U54A	0.0236 ± 0.0056
G13C A42G U65C	< 1e-05
U30C G35U G43U G66U	< 1e-05
A14U G32U U46C	4.16e-05 ± 1.4e-05
A12C U31C G43U G44U	< 1e-05
C8G G51U U69G	0.00122 ± 0.00049
C19U C68U	0.00423 ± 0.0011
A14G G29A U30C A39G	4.63e-05 ± 1.6e-05

Variant	self-cleavage kobs at 10000 uM GlcN6P [s⁻¹]
A28C C68U	0.00228 ± 0.00063
U30C U31G A33G U69G	< 1e-05
G7C U49A C50U A53U U54C C68U	< 1e-05
G9U U30C U31C G43A U65A C68U C71A	< 1e-05
G13C C67U C68G	< 1e-05
C10A A36U G59A G60A	< 1e-05
C8U C50A G51U A52U	< 1e-05
G13A A39G C67U	0.000112 ± 2.2e-05
C11G G13U C61G	< 1e-05
C10G C50U G62U C70G	< 1e-05
A6U U45G G66A	0.000175 ± 4.1e-05
G21U G41C C70U	0.000298 ± 8.1e-05
G7A G35U U57A	< 1e-05
A14G U47C U56G	0.0112 ± 0.0019
C16A U30C A53C C70G	< 1e-05
G7A A64G	4.09e-05 ± 9.6e-06
A14C G44A U45A	7.22e-05 ± 2.3e-05
C10A A12G G35C U56A U69A	0.000264 ± 7.7e-05
C8A G13A U46A	< 1e-05
C10A U45A U46C C70A	< 1e-05
A12G A14C A15G	0.000141 ± 3e-05

Variant	self-cleavage kobs at 10000 uM GlcN6P [s⁻¹]
U30A A33U G37C U69A	< 1e-05
C16U G41U U47A	0.000489 ± 7.1e-05
C8A U65G	< 1e-05
A12U G43U U46A	4.1e-05 ± 1.8e-05
G9A G29A G40U G51A	< 1e-05
C8G A12C A33C	< 1e-05
C10A A14G G32U A48C G59A	< 1e-05
A15G G32U G43U C61G G63U A64G G66A	< 1e-05
C8U U45G C50U U65C	< 1e-05
A12G G29A U46C	6.56e-05 ± 1.2e-05
C8A G38A G40C U57C	< 1e-05
C10U A15U U45A	< 1e-05
G29U U54A C71U	0.00223 ± 0.00064
G9U G62U	< 1e-05
G13C C71A	4.74e-05 ± 1.4e-05
A15G A52G C71U	0.00137 ± 0.00021
C19A G43C U47G	< 1e-05
U30A A42G U46A	0.000409 ± 9.1e-05
G7A G29C G32U U57C C58A	< 1e-05
C8U A15C G32U A36U A39C A48U	< 1e-05
A14C G40U U56G	0.00853 ± 0.0032

Variant	self-cleavage kobs at 10000 uM GlcN6P [s⁻¹]
A15U C16A A39U	0.000273 ± 6.1e-05
G9A A39C G41A A48C U49A	< 1e-05
G29U G60A C61A	< 1e-05
A15G C16U U47C U65A U69C	6.04e-05 ± 2.9e-05
C16A U31A C71G	4.01e-05 ± 1.1e-05
A12G A14C C67U	7.11e-05 ± 1.5e-05
G29C U45A U46A A52U	3.37e-05 ± 1.4e-05
G9U A12G C16A	< 1e-05
A14C U54G C70A	7.96e-05 ± 1.8e-05
G29U U47G C67G	0.000103 ± 1.9e-05
C8A A14G C70G	< 1e-05
A14U U46G A53G	0.000633 ± 9.6e-05
G7A C8G G9C G29U G35C G37A	< 1e-05
U30A G37C C50U	< 1e-05
G13U G37C G43C	< 1e-05
C16G A36C C58U C70G	4.92e-05 ± 2.2e-05
C11U U31G U49A G62A	< 1e-05
C10A A15C A42C U55G C68U	< 1e-05
A12G G37A G43A A52G	< 1e-05
A12U A42G C58G	0.00079 ± 0.00015
